The record followed here is paper PMC9135631 (2022).

Experiment [1] concerns the target T1, Latrophilin-3 ADHD-related variant D615N (Lphn3^D615N) (human).
T1 chain: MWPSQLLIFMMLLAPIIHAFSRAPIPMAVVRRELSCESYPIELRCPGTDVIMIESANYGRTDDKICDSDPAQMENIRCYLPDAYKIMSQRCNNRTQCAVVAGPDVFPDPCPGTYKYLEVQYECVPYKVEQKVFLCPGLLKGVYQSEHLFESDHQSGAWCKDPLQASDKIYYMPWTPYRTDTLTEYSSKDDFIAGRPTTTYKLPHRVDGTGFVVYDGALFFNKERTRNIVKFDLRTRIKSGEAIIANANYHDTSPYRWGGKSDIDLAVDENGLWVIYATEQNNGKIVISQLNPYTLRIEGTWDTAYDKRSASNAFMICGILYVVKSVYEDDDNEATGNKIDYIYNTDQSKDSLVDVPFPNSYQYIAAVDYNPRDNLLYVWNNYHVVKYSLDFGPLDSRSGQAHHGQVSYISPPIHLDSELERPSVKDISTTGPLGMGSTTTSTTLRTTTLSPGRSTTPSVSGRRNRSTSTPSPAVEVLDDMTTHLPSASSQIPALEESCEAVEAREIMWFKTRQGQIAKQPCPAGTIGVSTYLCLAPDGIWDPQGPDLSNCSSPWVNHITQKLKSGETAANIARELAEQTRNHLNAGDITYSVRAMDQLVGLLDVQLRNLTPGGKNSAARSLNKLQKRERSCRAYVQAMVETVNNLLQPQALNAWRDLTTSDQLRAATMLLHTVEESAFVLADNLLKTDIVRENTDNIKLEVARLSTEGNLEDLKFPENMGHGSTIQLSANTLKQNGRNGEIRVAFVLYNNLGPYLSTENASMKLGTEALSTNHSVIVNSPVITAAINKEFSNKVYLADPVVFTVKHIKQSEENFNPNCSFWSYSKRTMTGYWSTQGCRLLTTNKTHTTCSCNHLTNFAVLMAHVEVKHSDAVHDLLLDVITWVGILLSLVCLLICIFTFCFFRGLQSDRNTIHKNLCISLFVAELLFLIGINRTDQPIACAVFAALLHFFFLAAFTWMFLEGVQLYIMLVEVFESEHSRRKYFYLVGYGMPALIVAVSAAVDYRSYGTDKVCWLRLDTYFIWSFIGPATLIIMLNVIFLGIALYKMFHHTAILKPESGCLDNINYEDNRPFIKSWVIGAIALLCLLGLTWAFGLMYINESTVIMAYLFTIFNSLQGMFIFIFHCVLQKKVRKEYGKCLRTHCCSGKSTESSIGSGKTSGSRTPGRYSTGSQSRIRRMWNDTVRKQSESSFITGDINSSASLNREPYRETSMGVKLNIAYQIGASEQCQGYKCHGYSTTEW

The target of experiment [2] is T2, Latrophilin-3 ADHD-related variant T783M (Lphn3^T783M) (human).
T2 chain: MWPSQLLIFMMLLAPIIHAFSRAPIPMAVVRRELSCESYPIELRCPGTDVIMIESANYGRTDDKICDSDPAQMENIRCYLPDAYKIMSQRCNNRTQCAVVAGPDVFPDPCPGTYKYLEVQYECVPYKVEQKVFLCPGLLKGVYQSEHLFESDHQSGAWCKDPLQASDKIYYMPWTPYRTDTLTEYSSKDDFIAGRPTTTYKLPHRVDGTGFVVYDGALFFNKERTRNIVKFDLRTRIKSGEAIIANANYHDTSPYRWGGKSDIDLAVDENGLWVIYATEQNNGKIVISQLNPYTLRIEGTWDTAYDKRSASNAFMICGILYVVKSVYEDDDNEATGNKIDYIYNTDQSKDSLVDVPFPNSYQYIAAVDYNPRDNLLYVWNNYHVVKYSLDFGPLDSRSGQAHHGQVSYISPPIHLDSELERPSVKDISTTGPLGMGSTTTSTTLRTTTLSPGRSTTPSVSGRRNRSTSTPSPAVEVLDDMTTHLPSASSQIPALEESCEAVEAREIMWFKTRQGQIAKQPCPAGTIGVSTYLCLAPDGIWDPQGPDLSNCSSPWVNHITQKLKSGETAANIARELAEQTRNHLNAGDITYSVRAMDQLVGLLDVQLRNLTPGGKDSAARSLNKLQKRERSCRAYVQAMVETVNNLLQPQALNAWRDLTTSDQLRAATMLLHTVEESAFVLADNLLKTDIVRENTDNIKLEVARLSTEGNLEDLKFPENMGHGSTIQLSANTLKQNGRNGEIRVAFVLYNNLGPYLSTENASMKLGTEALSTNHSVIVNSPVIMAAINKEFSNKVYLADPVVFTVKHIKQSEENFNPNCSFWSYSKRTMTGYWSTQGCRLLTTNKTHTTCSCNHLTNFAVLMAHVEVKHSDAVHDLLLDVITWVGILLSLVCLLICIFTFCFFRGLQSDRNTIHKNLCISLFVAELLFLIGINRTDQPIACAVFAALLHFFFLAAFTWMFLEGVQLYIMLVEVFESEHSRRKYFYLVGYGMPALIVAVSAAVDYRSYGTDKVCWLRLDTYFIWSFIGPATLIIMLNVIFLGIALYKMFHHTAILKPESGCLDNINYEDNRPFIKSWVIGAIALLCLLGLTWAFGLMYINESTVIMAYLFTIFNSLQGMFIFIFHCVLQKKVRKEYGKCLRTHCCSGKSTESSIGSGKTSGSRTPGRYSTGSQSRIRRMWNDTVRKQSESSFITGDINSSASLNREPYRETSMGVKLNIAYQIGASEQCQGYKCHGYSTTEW

B1: soluble FLRT3 extracellular domain fused to the constant fraction of human IgG (FLRT3^ECD-Fc) (Fc fusion)
chain: KSCPSVCRCDAGFIYCNDRFLTSIPTGIPEDATTLYLQNNQINNAGIPSDLKNLLKVERIYLYHNSLDEFPTNLPKYVKELHLQENNIRTITYDSLSKIPYLEELHLDDNSVSAVSIEEGAFRDSNYLRLLFLSRNHLSTIPWGLPRTIEELRLDDNRISTISSPSLQGLTSLKRLVLDGNLLNNHGLGDKVFFNLVNLTELSLVRNSLTAAPVNLPGTNLRKLYLQDNHINRVPPNAFSYLRQLYRLDMSNNNLSNLPQGIFDDLDNITQLILRNNPWYCGCKMKWVRDWLQSLPVKVNVRGLMCQAPEKVRGMAIKDLNAELFDCKDSGIVSTIQITTAIPNTVYPAQGQWPAPVTKQPDIKNPKLTKDHQTTGSPSRKTITITVKSVTSDTIHISWKLALPMTALRLSWLKLGHSPAFGSITETIVTGERSEYLVTALEPDSPYKVCMVPMETSNLYLFDETPVCIETETAPLRMYNPTTTLNREQEKEPYKNPNLP
modifications: HA/Flag epitopes left out; isoform assumed; signal peptide removed and GPS autoproteolysis expected
In general, Kd refers to the concentration at which binding is half-saturated. High values mean lower affinity, low ones higher affinity. In the case of B1, the results for the Kd in experiment [1] and in experiment [2] were 1.25 nM and 1.22 nM, respectively.
